Assay results reported in patent US20260015399A1 (Boehringer Ingelheim, published 2026).
*1 amine or outer side, *2 acyl side, *3 side chain or, on linkers, in order; H or OH if unused. Side-chain parts run from the residue outwards. The star is where a group is joined. C18 diacid = O=C(O)CCCCCCCCCCCCCCCCC(=O)*; γGlu = O=C(O)[C@H](CCC(=O)[*:2])N[*:1]; Isovaleryl = CC(C)CC(=O)*; Ahx = NCCCCCC(=O)O

T1: human NPY2 receptor (human, UniProt P49146 1-381)
T1 construct: whole, on cells; also called hNPY2-R; hNPY2R
T1 sequence (looked up): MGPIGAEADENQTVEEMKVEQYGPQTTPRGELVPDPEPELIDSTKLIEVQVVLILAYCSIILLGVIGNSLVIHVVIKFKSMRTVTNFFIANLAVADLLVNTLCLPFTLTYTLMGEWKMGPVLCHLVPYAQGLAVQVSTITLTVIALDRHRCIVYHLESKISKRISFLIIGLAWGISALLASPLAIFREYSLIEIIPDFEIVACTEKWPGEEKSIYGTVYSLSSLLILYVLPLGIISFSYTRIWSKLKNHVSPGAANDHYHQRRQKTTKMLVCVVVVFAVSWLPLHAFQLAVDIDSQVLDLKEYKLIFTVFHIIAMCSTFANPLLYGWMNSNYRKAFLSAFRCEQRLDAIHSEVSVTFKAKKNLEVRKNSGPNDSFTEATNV

B1: Compound 125 (peptide)
peptide: Isovaleryl-APEK([Ahx-γGlu-C18 diacid])PEEDASPEELQRYYVELRHYYNWLTRQRY-NH2
SMILES: CC(C)CC(=O)N[C@@H](C)C(=O)N1CCC[C@H]1C(=O)N[C@@H](CCC(=O)O)C(=O)N[C@@H](CCCCNC(=O)CCCCCNC(=O)CC[C@H](NC(=O)CCCCCCCCCCCCCCCCC(=O)O)C(=O)O)C(=O)N1CCC[C@H]1C(=O)N[C@@H](CCC(=O)O)C(=O)N[C@@H](CCC(=O)O)C(=O)N[C@@H](CC(=O)O)C(=O)N[C@@H](C)C(=O)N[C@@H](CO)C(=O)N1CCC[C@H]1C(=O)N[C@@H](CCC(=O)O)C(=O)N[C@@H](CCC(=O)O)C(=O)N[C@@H](CC(C)C)C(=O)N[C@@H](CCC(N)=O)C(=O)N[C@@H](CCCNC(=N)N)C(=O)N[C@@H](Cc1ccc(O)cc1)C(=O)N[C@@H](Cc1ccc(O)cc1)C(=O)N[C@H](C(=O)N[C@@H](CCC(=O)O)C(=O)N[C@@H](CC(C)C)C(=O)N[C@@H](CCCNC(=N)N)C(=O)N[C@@H](Cc1c[nH]cn1)C(=O)N[C@@H](Cc1ccc(O)cc1)C(=O)N[C@@H](Cc1ccc(O)cc1)C(=O)N[C@@H](CC(N)=O)C(=O)N[C@@H](Cc1c[nH]c2ccccc12)C(=O)N[C@@H](CC(C)C)C(=O)N[C@H](C(=O)N[C@@H](CCCNC(=N)N)C(=O)N[C@@H](CCC(N)=O)C(=O)N[C@@H](CCCNC(=N)N)C(=O)N[C@@H](Cc1ccc(O)cc1)C(N)=O)[C@@H](C)O)C(C)C
B2: Compound 131 (peptide)
peptide: Isovaleryl-APEK([Ahx-γGlu-C18 diacid])PEADAEPEEIQRYYVALRHYYNWLTRQRY-NH2
SMILES: CC[C@H](C)[C@H](NC(=O)[C@H](CCC(=O)O)NC(=O)[C@H](CCC(=O)O)NC(=O)[C@@H]1CCCN1C(=O)[C@H](CCC(=O)O)NC(=O)[C@H](C)NC(=O)[C@H](CC(=O)O)NC(=O)[C@H](C)NC(=O)[C@H](CCC(=O)O)NC(=O)[C@@H]1CCCN1C(=O)[C@H](CCCCNC(=O)CCCCCNC(=O)CC[C@H](NC(=O)CCCCCCCCCCCCCCCCC(=O)O)C(=O)O)NC(=O)[C@H](CCC(=O)O)NC(=O)[C@@H]1CCCN1C(=O)[C@H](C)NC(=O)CC(C)C)C(=O)N[C@@H](CCC(N)=O)C(=O)N[C@@H](CCCNC(=N)N)C(=O)N[C@@H](Cc1ccc(O)cc1)C(=O)N[C@@H](Cc1ccc(O)cc1)C(=O)N[C@H](C(=O)N[C@@H](C)C(=O)N[C@@H](CC(C)C)C(=O)N[C@@H](CCCNC(=N)N)C(=O)N[C@@H](Cc1c[nH]cn1)C(=O)N[C@@H](Cc1ccc(O)cc1)C(=O)N[C@@H](Cc1ccc(O)cc1)C(=O)N[C@@H](CC(N)=O)C(=O)N[C@@H](Cc1c[nH]c2ccccc12)C(=O)N[C@@H](CC(C)C)C(=O)N[C@H](C(=O)N[C@@H](CCCNC(=N)N)C(=O)N[C@@H](CCC(N)=O)C(=O)N[C@@H](CCCNC(=N)N)C(=O)N[C@@H](Cc1ccc(O)cc1)C(N)=O)[C@@H](C)O)C(C)C
B3: Compound 132 (peptide)
peptide: Isovaleryl-APEK([Ahx-γGlu-C18 diacid])PEADATPEELQRYYVSLRHYYNWLTRQRY-NH2
SMILES: CC(C)CC(=O)N[C@@H](C)C(=O)N1CCC[C@H]1C(=O)N[C@@H](CCC(=O)O)C(=O)N[C@@H](CCCCNC(=O)CCCCCNC(=O)CC[C@H](NC(=O)CCCCCCCCCCCCCCCCC(=O)O)C(=O)O)C(=O)N1CCC[C@H]1C(=O)N[C@@H](CCC(=O)O)C(=O)N[C@@H](C)C(=O)N[C@@H](CC(=O)O)C(=O)N[C@@H](C)C(=O)N[C@H](C(=O)N1CCC[C@H]1C(=O)N[C@@H](CCC(=O)O)C(=O)N[C@@H](CCC(=O)O)C(=O)N[C@@H](CC(C)C)C(=O)N[C@@H](CCC(N)=O)C(=O)N[C@@H](CCCNC(=N)N)C(=O)N[C@@H](Cc1ccc(O)cc1)C(=O)N[C@@H](Cc1ccc(O)cc1)C(=O)N[C@H](C(=O)N[C@@H](CO)C(=O)N[C@@H](CC(C)C)C(=O)N[C@@H](CCCNC(=N)N)C(=O)N[C@@H](Cc1c[nH]cn1)C(=O)N[C@@H](Cc1ccc(O)cc1)C(=O)N[C@@H](Cc1ccc(O)cc1)C(=O)N[C@@H](CC(N)=O)C(=O)N[C@@H](Cc1c[nH]c2ccccc12)C(=O)N[C@@H](CC(C)C)C(=O)N[C@H](C(=O)N[C@@H](CCCNC(=N)N)C(=O)N[C@@H](CCC(N)=O)C(=O)N[C@@H](CCCNC(=N)N)C(=O)N[C@@H](Cc1ccc(O)cc1)C(N)=O)[C@@H](C)O)C(C)C)[C@@H](C)O
B4: Compound 130 (peptide)
peptide: Isovaleryl-APEK([Ahx-γGlu-C18 diacid])PEEDATPEELQLYYVSLRHYYNWLTRQRY-NH2
SMILES: CC(C)CC(=O)N[C@@H](C)C(=O)N1CCC[C@H]1C(=O)N[C@@H](CCC(=O)O)C(=O)N[C@@H](CCCCNC(=O)CCCCCNC(=O)CC[C@H](NC(=O)CCCCCCCCCCCCCCCCC(=O)O)C(=O)O)C(=O)N1CCC[C@H]1C(=O)N[C@@H](CCC(=O)O)C(=O)N[C@@H](CCC(=O)O)C(=O)N[C@@H](CC(=O)O)C(=O)N[C@@H](C)C(=O)N[C@H](C(=O)N1CCC[C@H]1C(=O)N[C@@H](CCC(=O)O)C(=O)N[C@@H](CCC(=O)O)C(=O)N[C@@H](CC(C)C)C(=O)N[C@@H](CCC(N)=O)C(=O)N[C@@H](CC(C)C)C(=O)N[C@@H](Cc1ccc(O)cc1)C(=O)N[C@@H](Cc1ccc(O)cc1)C(=O)N[C@H](C(=O)N[C@@H](CO)C(=O)N[C@@H](CC(C)C)C(=O)N[C@@H](CCCNC(=N)N)C(=O)N[C@@H](Cc1c[nH]cn1)C(=O)N[C@@H](Cc1ccc(O)cc1)C(=O)N[C@@H](Cc1ccc(O)cc1)C(=O)N[C@@H](CC(N)=O)C(=O)N[C@@H](Cc1c[nH]c2ccccc12)C(=O)N[C@@H](CC(C)C)C(=O)N[C@H](C(=O)N[C@@H](CCCNC(=N)N)C(=O)N[C@@H](CCC(N)=O)C(=O)N[C@@H](CCCNC(=N)N)C(=O)N[C@@H](Cc1ccc(O)cc1)C(N)=O)[C@@H](C)O)C(C)C)[C@@H](C)O
B5: Compound 126 (peptide)
peptide: Isovaleryl-APEK([Ahx-γGlu-C18 diacid])PEEDAEPEELQRYYVSLRHYYNWLTRQRY-NH2
SMILES: CC(C)CC(=O)N[C@@H](C)C(=O)N1CCC[C@H]1C(=O)N[C@@H](CCC(=O)O)C(=O)N[C@@H](CCCCNC(=O)CCCCCNC(=O)CC[C@H](NC(=O)CCCCCCCCCCCCCCCCC(=O)O)C(=O)O)C(=O)N1CCC[C@H]1C(=O)N[C@@H](CCC(=O)O)C(=O)N[C@@H](CCC(=O)O)C(=O)N[C@@H](CC(=O)O)C(=O)N[C@@H](C)C(=O)N[C@@H](CCC(=O)O)C(=O)N1CCC[C@H]1C(=O)N[C@@H](CCC(=O)O)C(=O)N[C@@H](CCC(=O)O)C(=O)N[C@@H](CC(C)C)C(=O)N[C@@H](CCC(N)=O)C(=O)N[C@@H](CCCNC(=N)N)C(=O)N[C@@H](Cc1ccc(O)cc1)C(=O)N[C@@H](Cc1ccc(O)cc1)C(=O)N[C@H](C(=O)N[C@@H](CO)C(=O)N[C@@H](CC(C)C)C(=O)N[C@@H](CCCNC(=N)N)C(=O)N[C@@H](Cc1c[nH]cn1)C(=O)N[C@@H](Cc1ccc(O)cc1)C(=O)N[C@@H](Cc1ccc(O)cc1)C(=O)N[C@@H](CC(N)=O)C(=O)N[C@@H](Cc1c[nH]c2ccccc12)C(=O)N[C@@H](CC(C)C)C(=O)N[C@H](C(=O)N[C@@H](CCCNC(=N)N)C(=O)N[C@@H](CCC(N)=O)C(=O)N[C@@H](CCCNC(=N)N)C(=O)N[C@@H](Cc1ccc(O)cc1)C(N)=O)[C@@H](C)O)C(C)C
B6: Compound 127 (peptide)
peptide: Isovaleryl-APEK([Ahx-γGlu-C18 diacid])PEAAAEPEELQRYYVALRHYYNWLTRQRY-NH2
SMILES: CC(C)CC(=O)N[C@@H](C)C(=O)N1CCC[C@H]1C(=O)N[C@@H](CCC(=O)O)C(=O)N[C@@H](CCCCNC(=O)CCCCCNC(=O)CC[C@H](NC(=O)CCCCCCCCCCCCCCCCC(=O)O)C(=O)O)C(=O)N1CCC[C@H]1C(=O)N[C@@H](CCC(=O)O)C(=O)N[C@@H](C)C(=O)N[C@@H](C)C(=O)N[C@@H](C)C(=O)N[C@@H](CCC(=O)O)C(=O)N1CCC[C@H]1C(=O)N[C@@H](CCC(=O)O)C(=O)N[C@@H](CCC(=O)O)C(=O)N[C@@H](CC(C)C)C(=O)N[C@@H](CCC(N)=O)C(=O)N[C@@H](CCCNC(=N)N)C(=O)N[C@@H](Cc1ccc(O)cc1)C(=O)N[C@@H](Cc1ccc(O)cc1)C(=O)N[C@H](C(=O)N[C@@H](C)C(=O)N[C@@H](CC(C)C)C(=O)N[C@@H](CCCNC(=N)N)C(=O)N[C@@H](Cc1c[nH]cn1)C(=O)N[C@@H](Cc1ccc(O)cc1)C(=O)N[C@@H](Cc1ccc(O)cc1)C(=O)N[C@@H](CC(N)=O)C(=O)N[C@@H](Cc1c[nH]c2ccccc12)C(=O)N[C@@H](CC(C)C)C(=O)N[C@H](C(=O)N[C@@H](CCCNC(=N)N)C(=O)N[C@@H](CCC(N)=O)C(=O)N[C@@H](CCCNC(=N)N)C(=O)N[C@@H](Cc1ccc(O)cc1)C(N)=O)[C@@H](C)O)C(C)C

What follows are binders tested against T1, human NPY2 receptor (assay: RLB: displacement of 125I-PYY(1-36) from hNPY2R membranes).

| Ki [nM] | Binder |
| --- | --- |
| 3.37 | B1 |
| 1.54 | B2 |
| 2.75 | B3 |
| 9.36 | B4 |
| 4.42 | B5 |
| 3.36 | B6 |
